Values belong to the binder of their own block, whether it stands above or below them.
How the values were obtained:
[1] = molecular target: T1, 重组人肌红蛋白 (recombinant human myoglobin, expressed in E. coli, made in-house) (human, UniProt P02144 2-154); assay: indirect ELISA, hybridoma supernatant on plates coated with recombinant human MYO at 1 μg/mL, HRP goat anti-mouse IgG
T1 construct: also called 人MYO; 重组人MYO
T1 sequence (looked up): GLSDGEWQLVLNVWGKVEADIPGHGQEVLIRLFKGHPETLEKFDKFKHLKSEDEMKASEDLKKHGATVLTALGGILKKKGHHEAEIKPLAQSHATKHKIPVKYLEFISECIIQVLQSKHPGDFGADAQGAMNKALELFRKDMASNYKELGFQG

[2] = molecular target: T1, 重组人肌红蛋白 (recombinant human myoglobin, …); assay: Western blot of recombinant MYO with HRP-labelled M08 (1:1000)
[3] = molecular target: T1, 重组人肌红蛋白 (recombinant human myoglobin, …); assay: Western blot of recombinant MYO with HRP-labelled M26 (1:1000)

binding result [3]: binds
B3: 单链抗体M26 (anti-human myoglobin scFv M26, His-tagged, expressed in E. coli) (scFv)
scFv: QVQLQQSGDDLVKPGASVKLSCKASGYTFTSYWINWIKQRPGQGLEWIGRIAPEGDSTYYNEMFKGKATLTVDTSSSTAYIQLSSLSSEDSAVYFCAREVRNAMDYWGQGTSVTVSSGGGGSGGGGSGGGGSDIQMNQSPSSLSASLGDTITITCHASQNIHVWLSWYLQKPGNITKLLIYEASNLHTGVPSRFSGSGSGTGFTLTISSLQPEDIATYYCQQGQRYPLTFGGGTKLEIK
notes: Purified on HisTrap HP; HRP-labelled for the Western blot; Coated on the T line of the nitrocellulose membrane in the test card; also called M26抗体; M26-scFv; not shown: histidine tag added downstream of the scFv gene

binding result [1]: binds
B4: 杂交瘤细胞株M08的抗体 (mouse monoclonal antibody from hybridoma M08) (antibody, V domains shown)
VH: QVQLQQSGAELAKPGASVKMSCKASGYTFTSYWMHWVKQRPGQGLEWIGYIKPNTDYTEYNQKFKDKATLTADKSSSTAYMQLSSLTSEDSAVYYCTRIRGYALDYWGQGTSVTVSS
VL: DIVMTQSPSSLTVTAGEKVTMICKSSQSLLNSGNQKNYLTWYQQKPGQPPKLLIYWASTRESGVPDRFTGSGSGTDFTLTISSVQAEDLAVYYCQNDYNFPLTFGAGTKLELK
notes: Tested as hybridoma culture supernatant; Mouse IgG, detected with HRP goat anti-mouse IgG

More lines, now with the values behind:

B1: 杂交瘤细胞株M26的抗体 (mouse monoclonal antibody from hybridoma M26) (antibody, V domains shown)
VH: QVQLQQSGDDLVKPGASVKLSCKASGYTFTSYWINWIKQRPGQGLEWIGRIAPEGDSTYYNEMFKGKATLTVDTSSSTAYIQLSSLSSEDSAVYFCAREVRNAMDYWGQGTSVTVSS
VL: DIQMNQSPSSLSASLGDTITITCHASQNIHVWLSWYLQKPGNITKLLIYEASNLHTGVPSRFSGSGSGTGFTLTISSLQPEDIATYYCQQGQRYPLTFGGGTKLEIK
notes: as for B4
binding result [1]: binds

B2: 单链抗体M08 (anti-human myoglobin scFv M08, His-tagged, expressed in E. coli) (scFv)
scFv: QVQLQQSGAELAKPGASVKMSCKASGYTFTSYWMHWVKQRPGQGLEWIGYIKPNTDYTEYNQKFKDKATLTADKSSSTAYMQLSSLTSEDSAVYYCTRIRGYALDYWGQGTSVTVSSGGGGSGGGGSGGGGSDIVMTQSPSSLTVTAGEKVTMICKSSQSLLNSGNQKNYLTWYQQKPGQPPKLLIYWASTRESGVPDRFTGSGSGTDFTLTISSVQAEDLAVYYCQNDYNFPLTFGAGTKLELK
notes: Purified on HisTrap HP; HRP-labelled for the Western blot; Coupled to time-resolved fluorescent microspheres in the test card; also called M08抗体; M08-scFv; not shown: histidine tag added downstream of the scFv gene
binding result [2]: binds

From patent CN109721655A (ZONHON BIOPHARMA INST INC, dated 2019)
